Experiment [1] deals with Copalyl diphosphate synthase from Penicillium fellutanum (PfCPS), full-length wild type (Penicillium fellutanum). Description: cryo-EM structure.
Experiment [2] has the same target. Description: SEC. (In general: Size exclusion chromatography separates by hydrodynamic size, large species first.)

On to “Copalyl diphosphate synthase from Penicillium fellutanum (PfCPS), full-length wild type (enzyme)”, for which the stoichiometry N in experiment [1] and in experiment [2] was 6 throughout.

As a reminder, the stoichiometry N is a count of units in the complex or per binding partner.

Source of the values: article PMC10939776.
